Publication PMC7391724 (Scientific Reports, 2020)
Where two headings read alike, the source gives them in different places.

Columns and labels:
[1] = Plasma pharmacokinetics after intravenous EC2629 in rats; format: in vivo; conditions: rat
Description: The plasma pharmacokinetics of EC2629 and metabolite EC2491 were evaluated following intravenous administration of EC2629 to male and female rats. The toxicokinetic phase of the study consisted of 5 groups with three animals/gender assigned to the control group, and nine animals/gender assigned to each of the treatment groups. […] Blood samples were collected from Group 0 at 10 min post-dose, and from Groups 1–4 at pre-dose, 2, 10, and 30 min and 1, 2, 8, 12, and 24 h post-dose. Plasma was prepared and analyzed for concentrations of EC2629 and metabolite EC2491. Mean plasma EC2629 and EC2491 concentration–time data for males and females, separately, of Groups 1–4 and were subjected to noncompartmental toxicokinetic evaluations and the results are summarized in Table S3.

[2] = Plasma protein binding (ultrafiltration), rat; format: in vitro ADME; conditions: 37 °C
Description: (§1) Plasma ultrafiltration was used for determination of free and protein bound fractions of EC2629 and EC2491. Samples were extracted and analyzed using fit-for-purpose bioanalytical methods. Briefly, 500 nM EC2629 or EC2491 was spiked into plasma maintained at 37 °C prior to plasma ultrafiltration. Plasma spiked with 500 nM EC2629 or EC2491 was allowed to equilibrate at 37 °C for 30 min prior to processing. Next, 50 μL of plasma was transferred to a clean 1.2 mL plate stored at 2–8 °C for further processing. The remaining plasma sample volumes were transferred to 30 Kd MWCO PES filter to generate plasma ultrafiltrate by centrifugation at 10,000×g for 20 min. After which, 50 μL of each plasma ultrafiltrate was transferred to separate wells in a clean 1.2 mL plate. To all spiked plasma samples, 50 μL of blank plasma ultrafiltrate was added. 50 μL of blank plasma was added to all experimental ultrafiltrate samples. These blank matrix additions normalized the matrix effects for protein binding determination. Samples were then extracted using protein precipitation with a 3:1 ratio of acetonitrile after addition of internal standard. The supernatant transferred to a new plate, evaporated, and reconstituted prior to LC–MS/MS analysis.

[3] = Plasma protein binding (ultrafiltration), across all species; format: in vitro ADME; conditions: rat, mouse, dog, human, 37 °C, read-out: plasma protein binding, range across all species
Description: as §1

Plasma stability, mouse = format: in vitro ADME; conditions: 500 nM, 37 °C, 2 h
Description: (§2) Whole blood and plasma stability were determined for EC2629 and EC2491 at a concentration of 500 nM. Samples were extracted and analyzed using fit-for-purpose bioanalytical methods. EC2629 or EC2491 was spiked into 1 mL whole blood or plasma maintained at 37 °C for 30 min prior to use . Fifty µl aliquots were then removed at defined timepoints and stored in a 1.2 mL extraction plate prior to analysis. Samples were then extracted using protein precipitation with a 3:1 ratio of acetonitrile after addition of internal standard. The supernatant was then transferred to a new plate, evaporated, and reconstituted prior to LC–MS/MS analysis.

[4] = Whole blood stability, dog; format: in vitro ADME; conditions: 37 °C, after two hours, read-out: percent remaining in whole blood
Description: as §2

[5] = 0.1 mg/kg, 0.10 mg/kg iv, female, Group 2
[6] = 0.1 mg/kg, 0.10 mg/kg iv, male, Group 2
[7] = 0.5 mg/kg, 0.50 mg/kg iv, female, Group 4
[8] = 0.5 mg/kg, 0.50 mg/kg iv, male, Group 4

C=C1C[C@H]2C=Nc3cc(OCCCCCOc4cc(N)c(C(=O)N5CC(=C)C[C@H]5C5OCCN5C(=O)OCC(C)(C)SSCCC(=O)NCCNC(=O)CCOCCOCCOCCOCCNC(=O)CCN5C(=O)CC(SC[C@H](NC(=O)[C@H](CC(=O)O)NC(=O)[C@H](CC(=O)O)NC(=O)[C@H](CCCNC(=N)N)NC(=O)[C@H](CC(=O)O)NC(=O)CC[C@H](NC(=O)c6ccc(NCc7cnc8nc(N)[nH]c(=O)c8n7)cc6)C(=O)O)C(=O)O)C5=O)cc4OC)c(OC)cc3C(=O)N2C1 (stereo partly shown) [EC2629] showed a clearance ([1]; both sexes, across 0.05-0.50 mg/kg iv dose groups, males and females, read-out: Clearance (Cl), range) of 1.51 to 2.9 mL/min/kg, a Vd ([1]; both sexes, across 0.05-0.50 mg/kg iv dose groups, males and females, read-out: volume of distribution (Vz), range) of 0.109 to 0.191 L/kg and an AUC(0-inf) ([1]; 0.05 mg/kg iv, female, Group 1) of 287 ng·h/mL. It also gave an AUC(0-t) ([1]; 0.05 mg/kg iv, female, Group 1) of 260 ng·h/mL, a C0 ([1]; 0.05 mg/kg iv, female, Group 1) of 662 ng/mL and a Cmax ([1]; 0.05 mg/kg iv, female, Group 1) of 545 ng/mL. For the same compound, the Tmax ([1]; 0.05 mg/kg iv, female, Group 1) was 1.98 min, the half-life ([1]; 0.05 mg/kg iv, female, Group 1) was 37.6 min and the clearance ([1]; 0.05 mg/kg iv, female, Group 1, read-out: Cl (converted)) was 2.9 mL/min/kg. For the same compound, the Vd ([1]; 0.05 mg/kg iv, female, Group 1, read-out: Vz) was 0.157 L/kg, the AUC(0-inf) ([1]; 0.05 mg/kg iv, male, Group 1) was 384 ng·h/mL and the AUC(0-t) ([1]; 0.05 mg/kg iv, male, Group 1) was 305 ng·h/mL. It also gave a C0 ([1]; 0.05 mg/kg iv, male, Group 1) of 669 ng/mL, a Cmax ([1]; 0.05 mg/kg iv, male, Group 1) of 595 ng/mL and a Tmax ([1]; 0.05 mg/kg iv, male, Group 1) of 1.98 min. It also gave a half-life ([1]; 0.05 mg/kg iv, male, Group 1) of 61.2 min, a clearance ([1]; 0.05 mg/kg iv, male, Group 1, read-out: Cl (converted)) of 2.17 mL/min/kg and a Vd ([1]; 0.05 mg/kg iv, male, Group 1, read-out: Vz) of 0.191 L/kg. For the same compound, the AUC(0-inf) [1, 5] was 633 ng·h/mL, the AUC(0-t) [1, 5] was 596 ng·h/mL and the C0 [1, 5] was 1570 ng/mL. The Cmax [1, 5] was 1330 ng/mL, the Tmax [1, 5] was 1.98 min and the half-life [1, 5] was 31.5 min. For the same compound, the clearance ([1]; 0.1 mg/kg, 0.10 mg/kg iv, female, Group 2, read-out: Cl (converted)) was 2.63 mL/min/kg, the Vd ([1]; 0.1 mg/kg, 0.10 mg/kg iv, female, Group 2, read-out: Vz) was 0.12 L/kg and the AUC(0-inf) [1, 6] was 699 ng·h/mL. The AUC(0-t) [1, 6] was 617 ng·h/mL, the C0 [1, 6] was 1690 ng/mL and the Cmax [1, 6] was 1390 ng/mL. For the same compound, the Tmax [1, 6] was 1.98 min, the half-life [1, 6] was 42.4 min and the clearance ([1]; 0.1 mg/kg, 0.10 mg/kg iv, male, Group 2, read-out: Cl (converted)) was 2.38 mL/min/kg. It also gave a Vd ([1]; 0.1 mg/kg, 0.10 mg/kg iv, male, Group 2, read-out: Vz) of 0.146 L/kg, an AUC(0-inf) ([1]; 0.25 mg/kg iv, female, Group 3) of 1750 ng·h/mL and an AUC(0-t) ([1]; 0.25 mg/kg iv, female, Group 3) of 1640 ng·h/mL. It also gave a C0 ([1]; 0.25 mg/kg iv, female, Group 3) of 3740 ng/mL, a Cmax ([1]; 0.25 mg/kg iv, female, Group 3) of 3230 ng/mL and a Tmax ([1]; 0.25 mg/kg iv, female, Group 3) of 1.98 min. The half-life ([1]; 0.25 mg/kg iv, female, Group 3) was 31.8 min, the clearance ([1]; 0.25 mg/kg iv, female, Group 3, read-out: Cl (converted)) was 2.38 mL/min/kg and the Vd ([1]; 0.25 mg/kg iv, female, Group 3, read-out: Vz) was 0.109 L/kg. For the same compound, the AUC(0-inf) ([1]; 0.25 mg/kg iv, male, Group 3) was 1930 ng·h/mL, the AUC(0-t) ([1]; 0.25 mg/kg iv, male, Group 3) was 1670 ng·h/mL and the C0 ([1]; 0.25 mg/kg iv, male, Group 3) was 4310 ng/mL. It also gave a Cmax ([1]; 0.25 mg/kg iv, male, Group 3) of 3580 ng/mL, a Tmax ([1]; 0.25 mg/kg iv, male, Group 3) of 1.98 min and a half-life ([1]; 0.25 mg/kg iv, male, Group 3) of 46.2 min. The clearance ([1]; 0.25 mg/kg iv, male, Group 3, read-out: Cl (converted)) was 2.15 mL/min/kg, the Vd ([1]; 0.25 mg/kg iv, male, Group 3, read-out: Vz) was 0.144 L/kg and the AUC(0-inf) [1, 7] was 3540 ng·h/mL. The AUC(0-t) [1, 7] was 3230 ng·h/mL, the C0 [1, 7] was 7060 ng/mL and the Cmax [1, 7] was 6070 ng/mL. The Tmax [1, 7] was 1.98 min, the half-life [1, 7] was 36.7 min and the clearance ([1]; 0.5 mg/kg, 0.50 mg/kg iv, female, Group 4, read-out: Cl (converted)) was 2.35 mL/min/kg. It also gave a Vd ([1]; 0.5 mg/kg, 0.50 mg/kg iv, female, Group 4, read-out: Vz) of 0.125 L/kg, an AUC(0-inf) [1, 8] of 5510 ng·h/mL and an AUC(0-t) [1, 8] of 5450 ng·h/mL. For the same compound, the C0 [1, 8] was 8450 ng/mL, the Cmax [1, 8] was 7080 ng/mL and the Tmax [1, 8] was 1.98 min. For the same compound, the half-life [1, 8] was 84 min, the clearance ([1]; 0.5 mg/kg, 0.50 mg/kg iv, male, Group 4, read-out: Cl (converted)) was 1.51 mL/min/kg and the Vd ([1]; 0.5 mg/kg, 0.50 mg/kg iv, male, Group 4, read-out: Vz) was 0.183 L/kg. For the same compound, the fraction unbound at 30 min, 500 nM [2] was 0.026, the fraction unbound at 30 min, 500 nM [3] was 0.026 to 0.128 and the plasma stability (Plasma stability, mouse) was “stable”. For the same compound, the remaining at 2 h, 500 nM [4] was 75.8%.
